Measured values reported in patent publication US20220033505A1 (Janssen / Centocor, published 2022).

Target: HLA-G on NCI-H2009-b2m target cells (human, UniProt P17693 25-338)
Assay: cell-based or functional assay

B1: HC3B232 (CD3W246-LH-scFv-Fc x MHGB732-Fab-Fc) (bispecific antibody, human IgG1, kappa, L234A L235A)
scFv: DIQMTQSPSSLSASVGDRVTITCRARQSIGTAIHWYQQKPGKAPKLLIKYASESISGVPSRFSGSGSGTDFTLTISSVQPEDFATYYCQQSGSWPYTFGQGTKLEIKGGSEGKSSGSGSESKSTGGSEVQLVESGGGLVKPGGSLRLSCAASGFTFSRYNMNWVRQAPGKGLEWVSSISTSSNYIYYADSVKGRFTFSRDNAKNSLDLQMSGLRAEDTAIYYCTRGWGPFDYWGQGTLVTVSSEPKSSDKTHTCPPCPAPEAAGGPSVFLFPPKPKDTLMISRTPEVTCVVVSVSHEDPEVKFNWYVDGVEVHNAKTKPREEQYNSTYRVVSVLTVLHQDWLNGKEYKCKVSNKALPAPIEKTISKAKGQPREPQVYVYPPSREEMTKNQVSLTCLVKGFYPSDIAVEWESNGQPENNYKTTPPVLDSDGSFALVSKLTVDKSRWQQGNVFSCSVMHEALHNHYTQKSLSLSPGK
heavy: QVQLQQSGPGLVKPSQTLSLTCAISGDSVSSNSAAWNWIRQSPSRGLEWLGRTYYRSKWYNDYAVSVKSRITINPDTSKNQISLQLNSVTPEDTAVYYCAGDRRYGIVGLPFAYWGQGTLVTVSSASTKGPSVFPLAPSSKSTSGGTAALGCLVKDYFPEPVTVSWNSGALTSGVHTFPAVLQSSGLYSLSSVVTVPSSSLGTQTYICNVNHKPSNTKVDKKVEPKSCDKTHTCPPCPAPEAAGGPSVFLFPPKPKDTLMISRTPEVTCVVVSVSHEDPEVKFNWYVDGVEVHNAKTKPREEQYNSTYRVVSVLTVLHQDWLNGKEYKCKVSNKALPAPIEKTISKAKGQPREPQVYVLPPSREEMTKNQVSLLCLVKGFYPSDIAVEWESNGQPENNYLTWPPVLDSDGSFFLYSKLTVDKSRWQQGNVFSCSVMHEALHNHYTQKSLSLSPG
light: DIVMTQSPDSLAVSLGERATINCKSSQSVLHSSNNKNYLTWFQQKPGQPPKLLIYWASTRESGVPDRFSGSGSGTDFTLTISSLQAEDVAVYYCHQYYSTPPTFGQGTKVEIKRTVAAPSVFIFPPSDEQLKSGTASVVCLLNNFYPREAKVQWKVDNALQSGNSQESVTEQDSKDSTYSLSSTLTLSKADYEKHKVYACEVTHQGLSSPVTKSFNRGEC
  Cytotoxicity, EC50 (M); T cell-mediated cytotoxicity against NCI-H2009-b2m cells, 72 hr, E:T 3:1: 6.77e-12 M

B2: HC3B231 (CD3B450-LH-scFv-Fc x MHGB732-Fab-Fc) (bispecific antibody, human IgG1, kappa, L234A L235A)
scFv: QSALTQPASVSGSPGQSITISCTGTSSNIGTYKFVSWYQQHPGKAPKVMIYEVSKRPSGVSNRFSGSKSGNTASLTISGLQAEDEADYYCVSYAGSGTLLFGGGTKLTVLGGSEGKSSGSGSESKSTGGSQVQLQQSGPGLVKPSQTLSLTCAISGDSVFNNNAAWSWIRQSPSRGLEWLGRTYYRSKWLYDYAVSVKSRITINPDTSKNQFSLQLNSVTPEDTAVYYCARGYSSSFDYWGQGTLVTVSSEPKSSDKTHTCPPCPAPEAAGGPSVFLFPPKPKDTLMISRTPEVTCVVVSVSHEDPEVKFNWYVDGVEVHNAKTKPREEQYNSTYRVVSVLTVLHQDWLNGKEYKCKVSNKALPAPIEKTISKAKGQPREPQVYVYPPSREEMTKNQVSLTCLVKGFYPSDIAVEWESNGQPENNYKTTPPVLDSDGSFALVSKLTVDKSRWQQGNVFSCSVMHEALHNHYTQKSLSLSPG
heavy: QVQLQQSGPGLVKPSQTLSLTCAISGDSVSSNSAAWNWIRQSPSRGLEWLGRTYYRSKWYNDYAVSVKSRITINPDTSKNQISLQLNSVTPEDTAVYYCAGDRRYGIVGLPFAYWGQGTLVTVSSASTKGPSVFPLAPSSKSTSGGTAALGCLVKDYFPEPVTVSWNSGALTSGVHTFPAVLQSSGLYSLSSVVTVPSSSLGTQTYICNVNHKPSNTKVDKKVEPKSCDKTHTCPPCPAPEAAGGPSVFLFPPKPKDTLMISRTPEVTCVVVSVSHEDPEVKFNWYVDGVEVHNAKTKPREEQYNSTYRVVSVLTVLHQDWLNGKEYKCKVSNKALPAPIEKTISKAKGQPREPQVYVLPPSREEMTKNQVSLLCLVKGFYPSDIAVEWESNGQPENNYLTWPPVLDSDGSFFLYSKLTVDKSRWQQGNVFSCSVMHEALHNHYTQKSLSLSPG
light: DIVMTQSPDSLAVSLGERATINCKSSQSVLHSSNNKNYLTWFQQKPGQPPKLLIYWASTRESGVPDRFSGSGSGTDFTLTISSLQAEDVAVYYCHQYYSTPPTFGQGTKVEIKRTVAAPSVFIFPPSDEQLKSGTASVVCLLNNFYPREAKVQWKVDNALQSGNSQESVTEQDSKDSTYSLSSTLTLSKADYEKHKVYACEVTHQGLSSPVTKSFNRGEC
  Cytotoxicity, EC50 (M); T cell-mediated cytotoxicity against NCI-H2009-b2m cells, 72 hr, E:T 3:1: 1.26e-10 M

B3: HC3B238 (CD3W246-HL-scFv-Fc x MHGB738-Fab-Fc) (bispecific antibody, human IgG1, kappa, L234A L235A)
scFv: EVQLVESGGGLVKPGGSLRLSCAASGFTFSRYNMNWVRQAPGKGLEWVSSISTSSNYIYYADSVKGRFTFSRDNAKNSLDLQMSGLRAEDTAIYYCTRGWGPFDYWGQGTLVTVSSGGSEGKSSGSGSESKSTGGSDIQMTQSPSSLSASVGDRVTITCRARQSIGTAIHWYQQKPGKAPKLLIKYASESISGVPSRFSGSGSGTDFTLTISSVQPEDFATYYCQQSGSWPYTFGQGTKLEIKEPKSSDKTHTCPPCPAPEAAGGPSVFLFPPKPKDTLMISRTPEVTCVVVSVSHEDPEVKFNWYVDGVEVHNAKTKPREEQYNSTYRVVSVLTVLHQDWLNGKEYKCKVSNKALPAPIEKTISKAKGQPREPQVYVYPPSREEMTKNQVSLTCLVKGFYPSDIAVEWESNGQPENNYKTTPPVLDSDGSFALVSKLTVDKSRWQQGNVFSCSVMHEALHNHYTQKSLSLSPG
heavy: QVQLQQSGPGLVKPSQTLSLTCAISGDSVSSNRAAWNWIRQSPSRGLEWLGRTYYRSKWYNDYAVSVKSRITINPDTSKNQISLQLNSVTPEDTAVYYCARVRPGIPFDYWGQGTPVTVSSASTKGPSVFPLAPSSKSTSGGTAALGCLVKDYFPEPVTVSWNSGALTSGVHTFPAVLQSSGLYSLSSVVTVPSSSLGTQTYICNVNHKPSNTKVDKKVEPKSCDKTHTCPPCPAPEAAGGPSVFLFPPKPKDTLMISRTPEVTCVVVSVSHEDPEVKFNWYVDGVEVHNAKTKPREEQYNSTYRVVSVLTVLHQDWLNGKEYKCKVSNKALPAPIEKTISKAKGQPREPQVYVLPPSREEMTKNQVSLLCLVKGFYPSDIAVEWESNGQPENNYLTWPPVLDSDGSFFLYSKLTVDKSRWQQGNVFSCSVMHEALHNHYTQKSLSLSPG
light: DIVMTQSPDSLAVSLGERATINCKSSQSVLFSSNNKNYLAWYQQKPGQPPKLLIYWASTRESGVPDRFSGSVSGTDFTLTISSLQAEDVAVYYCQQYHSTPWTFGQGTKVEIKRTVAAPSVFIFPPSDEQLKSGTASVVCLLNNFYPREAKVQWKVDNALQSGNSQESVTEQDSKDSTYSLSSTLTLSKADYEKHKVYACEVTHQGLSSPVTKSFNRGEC
  Cytotoxicity, EC50 (M); T cell-mediated cytotoxicity against NCI-H2009-b2m cells, 72 hr, E:T 3:1: 1.73e-11 M

B4: HC3B237 (CD3W246-LH-scFv-Fc x MHGB738-Fab-Fc) (bispecific antibody, human IgG1, kappa, L234A L235A)
scFv: DIQMTQSPSSLSASVGDRVTITCRARQSIGTAIHWYQQKPGKAPKLLIKYASESISGVPSRFSGSGSGTDFTLTISSVQPEDFATYYCQQSGSWPYTFGQGTKLEIKGGSEGKSSGSGSESKSTGGSEVQLVESGGGLVKPGGSLRLSCAASGFTFSRYNMNWVRQAPGKGLEWVSSISTSSNYIYYADSVKGRFTFSRDNAKNSLDLQMSGLRAEDTAIYYCTRGWGPFDYWGQGTLVTVSSEPKSSDKTHTCPPCPAPEAAGGPSVFLFPPKPKDTLMISRTPEVTCVVVSVSHEDPEVKFNWYVDGVEVHNAKTKPREEQYNSTYRVVSVLTVLHQDWLNGKEYKCKVSNKALPAPIEKTISKAKGQPREPQVYVYPPSREEMTKNQVSLTCLVKGFYPSDIAVEWESNGQPENNYKTTPPVLDSDGSFALVSKLTVDKSRWQQGNVFSCSVMHEALHNHYTQKSLSLSPGK
heavy: QVQLQQSGPGLVKPSQTLSLTCAISGDSVSSNRAAWNWIRQSPSRGLEWLGRTYYRSKWYNDYAVSVKSRITINPDTSKNQISLQLNSVTPEDTAVYYCARVRPGIPFDYWGQGTPVTVSSASTKGPSVFPLAPSSKSTSGGTAALGCLVKDYFPEPVTVSWNSGALTSGVHTFPAVLQSSGLYSLSSVVTVPSSSLGTQTYICNVNHKPSNTKVDKKVEPKSCDKTHTCPPCPAPEAAGGPSVFLFPPKPKDTLMISRTPEVTCVVVSVSHEDPEVKFNWYVDGVEVHNAKTKPREEQYNSTYRVVSVLTVLHQDWLNGKEYKCKVSNKALPAPIEKTISKAKGQPREPQVYVLPPSREEMTKNQVSLLCLVKGFYPSDIAVEWESNGQPENNYLTWPPVLDSDGSFFLYSKLTVDKSRWQQGNVFSCSVMHEALHNHYTQKSLSLSPG
light: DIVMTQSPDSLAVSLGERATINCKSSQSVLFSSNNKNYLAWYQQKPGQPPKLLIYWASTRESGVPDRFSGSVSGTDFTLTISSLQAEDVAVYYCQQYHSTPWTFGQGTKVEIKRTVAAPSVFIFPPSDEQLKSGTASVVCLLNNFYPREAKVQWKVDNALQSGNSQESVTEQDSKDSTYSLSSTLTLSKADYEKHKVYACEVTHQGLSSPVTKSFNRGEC
  Cytotoxicity, EC50 (M); T cell-mediated cytotoxicity against NCI-H2009-b2m cells, 72 hr, E:T 3:1: 1.33e-10 M

B5: HC3B235 (CD3B219-LH-scFv-Fc x MHGB738-Fab-Fc) (bispecific antibody, human IgG1, kappa, L234A L235A)
scFv: QTVVTQEPSLTVSPGGTVTLTCRSSTGAVTTSNYANWVQQKPGQAPRGLIGGTNKRAPGTPARFSGSLLGGKAALTLSGVQPEDEAEYYCALWYSNLWVFGGGTKLTVLGGSEGKSSGSGSESKSTGGSEVQLVESGGGLVQPGGSLRLSCAASGFTFNTYAMNWVRQAPGKGLEWVARIRSKYNNYATYYAASVKGRFTISRDDSKNSLYLQMNSLKTEDTAVYYCVRHGNFGNSYVSWFAYWGQGTLVTVSSEPKSSDKTHTCPPCPAPEAAGGPSVFLFPPKPKDTLMISRTPEVTCVVVSVSHEDPEVKFNWYVDGVEVHNAKTKPREEQYNSTYRVVSVLTVLHQDWLNGKEYKCKVSNKALPAPIEKTISKAKGQPREPQVYVYPPSREEMTKNQVSLTCLVKGFYPSDIAVEWESNGQPENNYKTTPPVLDSDGSFALVSKLTVDKSRWQQGNVFSCSVMHEALHNHYTQKSLSLSPG
heavy: QVQLQQSGPGLVKPSQTLSLTCAISGDSVSSNRAAWNWIRQSPSRGLEWLGRTYYRSKWYNDYAVSVKSRITINPDTSKNQISLQLNSVTPEDTAVYYCARVRPGIPFDYWGQGTPVTVSSASTKGPSVFPLAPSSKSTSGGTAALGCLVKDYFPEPVTVSWNSGALTSGVHTFPAVLQSSGLYSLSSVVTVPSSSLGTQTYICNVNHKPSNTKVDKKVEPKSCDKTHTCPPCPAPEAAGGPSVFLFPPKPKDTLMISRTPEVTCVVVSVSHEDPEVKFNWYVDGVEVHNAKTKPREEQYNSTYRVVSVLTVLHQDWLNGKEYKCKVSNKALPAPIEKTISKAKGQPREPQVYVLPPSREEMTKNQVSLLCLVKGFYPSDIAVEWESNGQPENNYLTWPPVLDSDGSFFLYSKLTVDKSRWQQGNVFSCSVMHEALHNHYTQKSLSLSPG
light: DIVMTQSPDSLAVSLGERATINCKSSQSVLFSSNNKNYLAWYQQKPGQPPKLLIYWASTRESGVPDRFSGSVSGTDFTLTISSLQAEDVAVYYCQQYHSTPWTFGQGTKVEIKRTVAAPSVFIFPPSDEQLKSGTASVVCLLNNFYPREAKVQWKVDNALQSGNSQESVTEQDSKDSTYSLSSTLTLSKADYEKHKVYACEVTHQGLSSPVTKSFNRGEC
  Cytotoxicity, EC50 (M); T cell-mediated cytotoxicity against NCI-H2009-b2m cells, 72 hr, E:T 3:1: 8.37e-11 M

B6: HC3B236 (CD3B450-LH-scFv-Fc x MHGB738-Fab-Fc) (bispecific antibody, human IgG1, kappa, L234A L235A)
scFv: QSALTQPASVSGSPGQSITISCTGTSSNIGTYKFVSWYQQHPGKAPKVMIYEVSKRPSGVSNRFSGSKSGNTASLTISGLQAEDEADYYCVSYAGSGTLLFGGGTKLTVLGGSEGKSSGSGSESKSTGGSQVQLQQSGPGLVKPSQTLSLTCAISGDSVFNNNAAWSWIRQSPSRGLEWLGRTYYRSKWLYDYAVSVKSRITINPDTSKNQFSLQLNSVTPEDTAVYYCARGYSSSFDYWGQGTLVTVSSEPKSSDKTHTCPPCPAPEAAGGPSVFLFPPKPKDTLMISRTPEVTCVVVSVSHEDPEVKFNWYVDGVEVHNAKTKPREEQYNSTYRVVSVLTVLHQDWLNGKEYKCKVSNKALPAPIEKTISKAKGQPREPQVYVYPPSREEMTKNQVSLTCLVKGFYPSDIAVEWESNGQPENNYKTTPPVLDSDGSFALVSKLTVDKSRWQQGNVFSCSVMHEALHNHYTQKSLSLSPG
heavy: QVQLQQSGPGLVKPSQTLSLTCAISGDSVSSNRAAWNWIRQSPSRGLEWLGRTYYRSKWYNDYAVSVKSRITINPDTSKNQISLQLNSVTPEDTAVYYCARVRPGIPFDYWGQGTPVTVSSASTKGPSVFPLAPSSKSTSGGTAALGCLVKDYFPEPVTVSWNSGALTSGVHTFPAVLQSSGLYSLSSVVTVPSSSLGTQTYICNVNHKPSNTKVDKKVEPKSCDKTHTCPPCPAPEAAGGPSVFLFPPKPKDTLMISRTPEVTCVVVSVSHEDPEVKFNWYVDGVEVHNAKTKPREEQYNSTYRVVSVLTVLHQDWLNGKEYKCKVSNKALPAPIEKTISKAKGQPREPQVYVLPPSREEMTKNQVSLLCLVKGFYPSDIAVEWESNGQPENNYLTWPPVLDSDGSFFLYSKLTVDKSRWQQGNVFSCSVMHEALHNHYTQKSLSLSPG
light: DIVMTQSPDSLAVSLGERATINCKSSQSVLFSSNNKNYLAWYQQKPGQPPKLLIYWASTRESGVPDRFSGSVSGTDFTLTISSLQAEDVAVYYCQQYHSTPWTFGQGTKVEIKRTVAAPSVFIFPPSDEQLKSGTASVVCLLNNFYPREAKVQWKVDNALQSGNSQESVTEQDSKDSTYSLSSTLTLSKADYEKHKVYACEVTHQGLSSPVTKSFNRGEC
  Cytotoxicity, EC50 (M); T cell-mediated cytotoxicity against NCI-H2009-b2m cells, 72 hr, E:T 3:1: 4.54e-09 M
